*1 amine or outer side, *2 acyl side, *3 side chain or, on linkers, in order; H or OH if unused. Bridges are numbered along the chain shown (N, C = ends). Primed or numbered codes have the meaning given here. [ ]: non-standard residue; d: D form. Phe(4-OMe)(3) = O-methyl-L-tyrosine (4-methoxy-L-phenylalanine), COc1ccc(C[C@H](N[*:1])C(=O)[*:2])cc1; Phe(4-OMe) = 4-methoxy-L-phenylalanine (O-methyl-L-tyrosine), COc1ccc(C[C@H](N[*:1])C(=O)[*:2])cc1; Phe(Bzl) = read as Phe(4-OBzl), O-benzyl-L-tyrosine, O=C([C@H](Cc1ccc(OCc2ccccc2)cc1)N[*:1])[*:2]; Phe(4-OMe)(4) = O-methyl-L-tyrosine, COc1ccc(C[C@H](N[*:1])C(=O)[*:2])cc1; Phe(4-guanidino) = N=C(N)Nc1ccc(C[C@H](N)C(=O)O)cc1; Phe(3,4-Cl2) = N[C@@H](Cc1ccc(Cl)c(Cl)c1)C(=O)O; Phe(4-CONH2) = NC(=O)c1ccc(C[C@H](N)C(=O)O)cc1; Phe(4-COOH) = N[C@@H](Cc1ccc(C(=O)O)cc1)C(=O)O; Tyr(Ph) = N[C@@H](Cc1ccc(Oc2ccccc2)cc1)C(=O)O; 1Nal = N[C@@H](Cc1cccc2ccccc12)C(=O)O; 2Nal = N[C@@H](Cc1ccc2ccccc2c1)C(=O)O; AEF = NCCOc1ccc(C[C@H](N)C(=O)O)cc1; αMeK = C[C@](N)(CCCCN)C(=O)O; Orn = NCCC[C@H](N)C(=O)O; Abu = CC[C@H](N)C(=O)O; Dap = NC[C@H](N)C(=O)O

T1: IL23R_huFC (human, UniProt Q5VWK5 24-353)
T1 sequence (looked up): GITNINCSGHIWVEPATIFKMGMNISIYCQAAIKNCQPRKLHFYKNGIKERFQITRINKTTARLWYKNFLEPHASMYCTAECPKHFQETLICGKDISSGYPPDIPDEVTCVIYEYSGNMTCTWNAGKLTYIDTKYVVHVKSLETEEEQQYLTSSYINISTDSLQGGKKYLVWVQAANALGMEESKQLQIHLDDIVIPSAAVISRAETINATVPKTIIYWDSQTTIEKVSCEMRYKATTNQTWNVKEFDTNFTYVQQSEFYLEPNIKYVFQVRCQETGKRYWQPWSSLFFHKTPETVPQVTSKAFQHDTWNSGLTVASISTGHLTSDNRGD

T2: Rat IL-23R_huFC (rat, UniProt F1LX96 39-369)
T2 sequence: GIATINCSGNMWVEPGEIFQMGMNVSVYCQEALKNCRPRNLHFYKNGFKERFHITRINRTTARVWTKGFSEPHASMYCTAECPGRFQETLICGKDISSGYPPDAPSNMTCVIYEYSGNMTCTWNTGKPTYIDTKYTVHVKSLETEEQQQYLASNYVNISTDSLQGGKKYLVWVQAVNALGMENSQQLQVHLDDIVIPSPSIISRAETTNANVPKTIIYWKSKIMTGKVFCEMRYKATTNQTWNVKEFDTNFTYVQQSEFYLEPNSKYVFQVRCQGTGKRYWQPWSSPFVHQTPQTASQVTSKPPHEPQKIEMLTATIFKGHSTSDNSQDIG

B1: Ac-Cyclo-[[Abu]-QTWQC]-Phe(3,4-Cl2)[2-Nal][α-MeLys]-Lys(Ac)]NG-NH2 (peptide)
peptide: Ac-[Abu]QTWQC[Phe(3,4-Cl2)][2Nal][αMeK]K(Ac)NG-NH2
modifications: thioether 1-6
B2: Ac-Cyclo-[[Abu]-QTWQC]-[Phe(4-Phenoxy)]-[2-Nal][α-MeLys]-[Lys(Ac)]-NG-NH2 (peptide)
peptide: Ac-[Abu]QTWQC[Tyr(Ph)][2Nal][αMeK]K(Ac)NG-NH2
modifications: thioether 1-6
B3: Ac-Cyclo-[[Abu]-QTWQC]-[Phe[4-(2-aminoethoxy)]]-W-[Orn]-[Dap(Ac)]-NG-NH2 (peptide)
peptide: Ac-[Abu]QTWQC[AEF]W[Orn][Dap](Ac)NG-NH2
modifications: thioether 1-6
B4: Ac-Cyclo-[[Abu]-QTWQC]-[Phe(4-OMe)]-W-[α-MeLys]-[Lys(Ac)]-NGE-NH2 (peptide)
peptide: Ac-[Abu]QTWQC[Phe(4-OMe)]W[αMeK]K(Ac)NGE-NH2
modifications: thioether 1-6
B5: Ac-Cyclo-[[Abu]-QT-[2-Nal]-QC]-[Phe(4-OMe)]-[2-Nal]-[α-MeLys]-[Lys(Ac)]-NG-NH2 (peptide)
peptide: Ac-[Abu]QT[2Nal]QC[Phe(4-OMe)(4)][2Nal][αMeK]K(Ac)NG-NH2
modifications: thioether 1-6
B6: Ac-Cyclo-[[Abu]-QT-[1,2,3,4-tetrahydro-norharman]-QC]Phe[4-(2-aminoethoxy)]]-[2-Nal]-[α-MeLys]-ENG-NH2 (peptide)
peptide: XQTXQCFXKENG
modifications: as bracketed in name; thioether cyclo
B7: Ac-Cyclo-[[Abu]-[Dap]-TWQC]-[Phe[4-(2-aminoethoxy)]]-[Phe(4-Phenoxy)]-[α-MeLys]-[Lys(Ac)]-NG-NH2 (peptide)
peptide: Ac-[Abu][Dap]TWQC[AEF][Tyr(Ph)][αMeK]K(Ac)NG-NH2
modifications: thioether 1-6
B8: Ac-Cyclo-[[Abu]-QTWQC]-[Phe[4-(2-aminoethoxy)]]-[Phe(4-CO2H)]-[α-MeLys]-[Lys(Ac)]-NG-NH2 (peptide)
peptide: Ac-[Abu]QTWQC[AEF][Phe(4-COOH)][αMeK]K(Ac)NG-NH2
modifications: thioether 1-6
B9: Ac-Cyclo-[[Abu]-QTWQC]-[Phe(4-OMe)]-[Phe(4-guanidino)]-[α-MeLys]-ENG-NH2 (peptide)
peptide: Ac-[Abu]QTWQC[Phe(4-OMe)(3)][Phe(4-guanidino)][αMeK]ENG-NH2
modifications: thioether 1-6
B10: Ac-Cyclo-[[Abu]-QTWQC]-[Phe[4-(2-aminoethoxy)]]-[Phe(4-CONH2)]-[α-MeLys]-[Lys(Ac)]-NG-NH2 (peptide)
peptide: Ac-[Abu]QTWQC[AEF][Phe(4-CONH2)][αMeK]K(Ac)NG-NH2
modifications: thioether 1-6
B11: Ac-Cyclo-[[Abu]-QTWQC]-[Phe(4-OMe)]-[Phe(Bzl)]-[α-MeLys]-ENG-NH2 (peptide)
peptide: Ac-[Abu]QTWQC[Phe(4-OMe)(3)][Phe(Bzl)][αMeK]ENG-NH2
modifications: thioether 1-6
B12: Ac-Cyclo-[[Abu]-QT-[1-Nal]-QC]-[Phe(4-OMe)]-[2-Nal]-[α-MeLys]-[Lys(Ac)]-NG-NH2 (peptide)
peptide: Ac-[Abu]QT[1Nal]QC[Phe(4-OMe)(4)][2Nal][αMeK]K(Ac)NG-NH2
modifications: thioether 1-6
B13: Ac-Cyclo-[[Abu]-DapTWQC]-[Phe[4-(2-aminoethoxy)]]-[Phe[4-(2-aminoethoxy)]]-[α-MeLys]-[Lys(Ac)]-NG-NH2 (peptide)
peptide: Ac-[Abu][Dap]TWQC[AEF][AEF][αMeK]K(Ac)NG-NH2
modifications: thioether 1-6
B14: Ac-[Pen]-QTWQ-[Pen]-[Phe(4-OMe)]-[2-Nal]-[α-MeLys]-[Lys(Ac)]-NG-NH2 (peptide)
peptide: XQTWQXFXKKNG
modifications: Ac; Pen-Pen disulfide; Phe(4-OMe); 2-Nal; α-MeLys; Lys(Ac); NH2
B15: Ac-[Pen]-QTWQ-[Pen]-[Phe(4-CONH2)]-[2-Nal]-[α-MeLys]-[Lys(Ac)]-NN-NH2 (peptide)
peptide: XQTWQXFXKKNN
modifications: Ac; Pen-Pen disulfide; Phe(4-CONH2); 2-Nal; α-MeLys; Lys(Ac); NH2
B16: Ac-[Pen]-QTWQ-[Pen]-[Phe(4-CONH2)]-[2-Nal]-[α-MeVal]-[Lys(Ac)]-NN-NH2 (peptide)
peptide: XQTWQXFXVKNN
modifications: Ac; Pen-Pen disulfide; Phe(4-CONH2); 2-Nal; α-MeVal; Lys(Ac); NH2
B17: Ac-[Pen]-QTWQ-[Pen]-[Phe[4-(2-aminoethoxy)]-[2-Nal]-[α-MeLys]-[Lys(Ac)]-NN-NH2 (peptide)
peptide: XQTWQXFXKKNN
modifications: Ac; Pen-Pen disulfide; Phe[4-(2-aminoethoxy)]; 2-Nal; α-MeLys; Lys(Ac); NH2
B18: Ac-[Pen]-RTWQ-[Pen]-YWRKFG-[AEA]-[(D)-Lys]-NH2 (peptide)
peptide: XRTWQXYWRKFGXK
modifications: Ac; Pen-Pen disulfide; AEA; (D)-Lys; NH2

The first assay concerns the target T1, IL23R_huFC. Kind of assay: human ELISA vs IL-23. Background: An ELISA detects its analyte on a solid surface through an enzyme-linked reagent.
With B1, the IC50 (commonly the point on the concentration scale where inhibition reaches its midpoint) was 100 to 1000 nM. The molecule B2 came in with a half-inhibitory concentration (IC50) of 100 to 1000 nM. Same read-out and setting: in the case of B3 it was 100 to 1000 nM; in that of B4, 100 to 1000 nM. In the case of B5, the half-inhibitory concentration (IC50) was 100 to 1000 nM.

In turn, B6 yielded an IC50 of 100 to 1000 nM. Take B7: the half-inhibitory concentration (IC50) was in the range of 100 to 1000 nM. As to B8, the half-inhibitory concentration (IC50) was 100 to 1000 nM. In the case of B9, the IC50 lay in the range of 100 to 1000 nM. Still for that read-out and setting: in the case of B10 it was 100 to 1000 nM; in that of B11, 100 to 1000 nM; in that of B12, 100 to 1000 nM. Take B13: the concentration for half-maximal inhibition (IC50) lay within 100 to 1000 nM.

For another assay, the target named is T2, Rat IL-23R_huFC. Description: rat IL-23R competitive binding ELISA.
B14 gave an IC50 of 25 to 100 nM. B15 gave an IC50 of 25 to 100 nM. B16: the IC50 lay in the range of 10 to 25 nM. In turn, B17 had a 50% inhibitory concentration (IC50) of 10 to 25 nM. As for B18, the IC50 lay within 25 to 100 nM.

(Values after patent publication US20190300590A1 (PROTAGONIST THERAPEUTICS, published 2019).)
